Results reported in patent US20220025023A1 (AC IMMUNE, published 2022).
Where no end group is shown, it is not given here.

T1: TDP-3 peptide (human)
T1 construct: Irrelevant control peptide; conjugated to Luminex beads in the assay; also called TDP-43 aa 310-370; irrelevant target
T1 peptide: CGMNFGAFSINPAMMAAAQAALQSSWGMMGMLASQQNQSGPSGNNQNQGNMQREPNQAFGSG

T2: TDP-1 peptide (human)
T2 construct: Immunogen peptide; conjugated to Luminex beads in the assay; also called TDP-43 aa 212-272
T2 peptide: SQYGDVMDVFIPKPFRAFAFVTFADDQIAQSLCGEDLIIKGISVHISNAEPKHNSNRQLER

T3: TP-24 peptide (human, also: biotinylated, site not given here)
T3 construct: 15-mer of human TDP-43 from the library spanning aa 199-285; captured on streptavidin plates
T3 peptide: REFFSQYGDVMDVFI

T4: TP-25 peptide (human, also: biotinylated, site not given here)
T4 construct: 15-mer of human TDP-43 from the library spanning aa 199-285; captured on streptavidin plates
T4 peptide: VMDVFIPKPFRAFAF

T5: TP-26 (also: biotinylated, site not given here)
T5 construct: also called TP-26 peptide
T5 peptide: FRAFAFVTFADDQIA

T6: TP-27 (also: biotinylated, site not given here)
T6 construct: also called TP-27 peptide
T6 peptide: ADDQIAQSLCGEDLI

T7: TP-28 (also: biotinylated, site not given here)
T7 construct: also called TP-28 peptide
T7 peptide: CGEDLIIKGISVHIS

T8: TP-29 (also: biotinylated, site not given here)
T8 construct: also called TP-29 peptide
T8 peptide: ISVHISNAEPKHNSN

T9: TP-30 (also: biotinylated, site not given here)
T9 construct: also called TP-30 peptide
T9 peptide: PKHNSNRQLERSGRF

T10: TP-31 (also: biotinylated, site not given here)
T10 construct: also called TP-31 peptide
T10 peptide: ERSGRFGGNPGGFGN

T11: TDP-210 peptide (human)
T11 construct: 8-mer of human TDP-43; same ELISA method as for the biotinylated 15-mers
T11 peptide: FFSQYGDV

T12: TDP-211 peptide (human)
T12 construct: 8-mer of human TDP-43; same ELISA method as for the biotinylated 15-mers
T12 peptide: FSQYGDVM

T13: TDP-212 peptide (human)
T13 construct: 8-mer of human TDP-43; same ELISA method as for the biotinylated 15-mers
T13 peptide: SQYGDVMD

T14: TDP-213 peptide (human)
T14 construct: 8-mer of human TDP-43; same ELISA method as for the biotinylated 15-mers
T14 peptide: QYGDVMDV

T15: TDP-214 peptide (human)
T15 construct: 8-mer of human TDP-43; same ELISA method as for the biotinylated 15-mers
T15 peptide: YGDVMDVF

T16: TDP-216 peptide (human)
T16 construct: 8-mer of human TDP-43; same ELISA method as for the biotinylated 15-mers
T16 peptide: DVMDVFIP

T17: TDP-217 peptide (human)
T17 construct: 8-mer of human TDP-43; same ELISA method as for the biotinylated 15-mers
T17 peptide: VMDVFIPK

T18: TDP-218 peptide (human)
T18 construct: 8-mer of human TDP-43; same ELISA method as for the biotinylated 15-mers
T18 peptide: MDVFIPKP

T19: TDP-219 peptide (human)
T19 construct: 8-mer of human TDP-43; same ELISA method as for the biotinylated 15-mers
T19 peptide: DVFIPKPF

T20: TDP-220 peptide (human)
T20 construct: 8-mer of human TDP-43; same ELISA method as for the biotinylated 15-mers
T20 peptide: VFIPKPFR

T21: TDP-221 peptide (human)
T21 construct: 8-mer of human TDP-43; same ELISA method as for the biotinylated 15-mers
T21 peptide: FIPKPFRA

T22: TDP-222 peptide (human)
T22 construct: 8-mer of human TDP-43; same ELISA method as for the biotinylated 15-mers
T22 peptide: IPKPFRAF

T23: TDP-223 peptide (human)
T23 construct: 8-mer of human TDP-43; same ELISA method as for the biotinylated 15-mers
T23 peptide: PKPFRAFA

T24: TDP-224 peptide (human)
T24 construct: 8-mer of human TDP-43; same ELISA method as for the biotinylated 15-mers
T24 peptide: KPFRAFAF

T25: TDP-215 peptide (human)
T25 construct: same ELISA method as for the biotinylated 15-mers
T25 peptide: GDVMDVFI


Legend:
TDP-3 peptide = target: T1, TDP-3 peptide; experiment: Luminex bead assay, TDP-3 peptide beads (irrelevant target)
[1] = target: T26, recombinant human full-length TDP-43 (human, UniProt Q13148 1-414); experiment: Luminex bead assay, antibody serial dilution, FL TDP-43 beads
T26 construct: Recombinant full-length protein; also called FL TDP-43; recFL TDP-43
T26 sequence (Q13148 whole entry): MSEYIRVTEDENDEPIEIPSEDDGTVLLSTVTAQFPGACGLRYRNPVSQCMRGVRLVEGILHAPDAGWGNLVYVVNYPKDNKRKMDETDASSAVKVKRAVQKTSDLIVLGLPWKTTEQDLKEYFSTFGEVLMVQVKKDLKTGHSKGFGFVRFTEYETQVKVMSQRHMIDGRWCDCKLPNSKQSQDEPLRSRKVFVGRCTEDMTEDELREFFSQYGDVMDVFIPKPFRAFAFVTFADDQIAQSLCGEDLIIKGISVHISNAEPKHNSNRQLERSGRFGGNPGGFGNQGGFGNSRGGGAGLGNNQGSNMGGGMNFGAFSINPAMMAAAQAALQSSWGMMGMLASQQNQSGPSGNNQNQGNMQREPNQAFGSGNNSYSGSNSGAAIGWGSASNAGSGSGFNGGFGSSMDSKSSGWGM

TDP-1 peptide = target: T2, TDP-1 peptide; experiment: Luminex bead assay, antibody serial dilution, TDP-1 peptide beads
BSA = target: T27, BSA (bovine, UniProt P02769); experiment: indirect ELISA, control coat in the 15-mer series, hybridoma supernatant
T27 construct: not specified; also called bovine serum albumin
T27 sequence (P02769 25-607 limits assumed): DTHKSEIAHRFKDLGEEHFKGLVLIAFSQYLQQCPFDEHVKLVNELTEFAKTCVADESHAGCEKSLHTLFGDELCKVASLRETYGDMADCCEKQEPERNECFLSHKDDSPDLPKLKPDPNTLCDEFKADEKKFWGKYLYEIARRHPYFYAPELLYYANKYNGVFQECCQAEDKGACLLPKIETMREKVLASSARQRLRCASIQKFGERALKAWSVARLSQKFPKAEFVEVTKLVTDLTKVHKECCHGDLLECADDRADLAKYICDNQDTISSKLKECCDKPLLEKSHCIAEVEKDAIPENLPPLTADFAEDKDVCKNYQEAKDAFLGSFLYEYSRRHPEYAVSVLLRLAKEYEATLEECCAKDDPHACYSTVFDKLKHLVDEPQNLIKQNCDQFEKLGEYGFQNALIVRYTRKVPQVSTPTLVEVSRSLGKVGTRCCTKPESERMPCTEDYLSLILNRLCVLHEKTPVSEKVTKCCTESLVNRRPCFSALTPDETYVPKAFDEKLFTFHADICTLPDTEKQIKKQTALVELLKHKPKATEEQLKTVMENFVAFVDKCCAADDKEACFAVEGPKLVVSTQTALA

[2] = target: T26, recombinant human full-length TDP-43; experiment: SPR avidity (Biacore T200), TDP-43 monomer immobilised, antibody as analyte, 1:1 model
Description: Avidity measurements were performed on an SPR instrument (Biacore T200, GE Healthcare Life Sciences) using CM5 Series S sensor chips. Recombinant human FL TDP-43 monomers or aggregated recombinant human FL TDP-43 was immobilized on a CM5 chip using amine coupling, injecting at a flow rate of 5 μl/min for 420 seconds. Conditions were optimized so that less than 200 RU protein was immobilized. Binding of the antibodies and the control antibody (2E2-D3) were obtained by injecting at: 1.37, 4.11, 12.33, 37, 111, and 333 nM in 1×PBS P+ at a flow rate of 50 μl/min for 90 s contact time and 600 s dissociation phase, with three regeneration cycles of the ligand surface by 10 mM Glycine-HCl (pH 1.7). Kinetics were analyzed using a 1:1 fitting model (see FIG. 8).

TP-24 peptide = target: T3, TP-24 peptide; experiment: indirect ELISA, biotinylated 15-mer peptide on streptavidin plate, hybridoma supernatant
Description: (§1) Serum-free supernatants were harvested from stable hybridomas. The supernatants containing antibodies of interest were then screened by an indirect ELISA assay to determine epitopes. Epitopes were mapped using a library of TDP-43 15-mer peptides. Briefly, 96-well streptavidin-coated 96-well ELISA plates were incubated with 5 μg/mL of biotinylated 15-mer peptides spanning the amino acids (aa) 199-285 of human TDP-43 with 9 aa offset and 6 aa overlap. Plates were washed thoroughly with 0.05% Tween-20/PBS and then blocked with 1% bovine serum albumin (BSA) in 0.05% Tween-20/PBS for 1 hour at 37° C. The antibody contained in the hybridoma supernatant was then added at the indicated dilutions, and incubated for 2 hours at 37° C. after which the plates were washed as described previously. An AP-conjugated anti-mouse IgG secondary antibody (Jackson ImmunoResearch Laboratories, United Kingdom) was added at 1/1000 dilution in 0.05% Tween-20/PBS for 1 hour at 37° C. After the final wash, plates were incubated with pNPP (Sigma-Aldrich, Switzerland) an AP substrate solution, and read at 405 nm using an ELISA plate reader (Tecan).

TP-25 peptide = target: T4, TP-25 peptide; experiment: as above
Description: as §1

TP-26 = target: T5, TP-26; experiment: indirect ELISA, biotinylated 15-mer on streptavidin plate, hybridoma supernatant
Description: as §1

TP-27 = target: T6, TP-27; experiment: as above
Description: as §1

TP-28 = target: T7, TP-28; experiment: as above
Description: as §1

TP-29 = target: T8, TP-29; experiment: as above
Description: as §1

TP-30 = target: T9, TP-30; experiment: as above
Description: as §1

TP-31 = target: T10, TP-31; experiment: as above
Description: as §1

TDP-210 peptide = target: T11, TDP-210 peptide; experiment: indirect ELISA, 8-mer peptide library
Description: as §1
(§2) Furthermore, antibodies were tested using an indirect ELISA on a peptide library of 8-mer peptides with 7 aa overlap covering the sequence of human TDP-43 from aa 210 to aa 231, using the same ELISA method as describe previously in this section.

TDP-211 peptide = target: T12, TDP-211 peptide; experiment: indirect ELISA, 8-mer peptide library
Description: as §1, §2

TDP-212 peptide = target: T13, TDP-212 peptide; experiment: indirect ELISA, 8-mer peptide library
Description: as §1, §2

TDP-213 peptide = target: T14, TDP-213 peptide; experiment: indirect ELISA, 8-mer peptide library
Description: as §1, §2

TDP-214 peptide = target: T15, TDP-214 peptide; experiment: indirect ELISA, 8-mer peptide library
Description: as §1, §2

TDP-216 peptide = target: T16, TDP-216 peptide; experiment: indirect ELISA, 8-mer peptide library
Description: as §1, §2

TDP-217 peptide = target: T17, TDP-217 peptide; experiment: indirect ELISA, 8-mer peptide library
Description: as §1, §2

TDP-218 peptide = target: T18, TDP-218 peptide; experiment: indirect ELISA, 8-mer peptide library
Description: as §1, §2

TDP-219 peptide = target: T19, TDP-219 peptide; experiment: indirect ELISA, 8-mer peptide library
Description: as §1, §2

TDP-220 peptide = target: T20, TDP-220 peptide; experiment: indirect ELISA, 8-mer peptide library
Description: as §1, §2

TDP-221 peptide = target: T21, TDP-221 peptide; experiment: indirect ELISA, 8-mer peptide library
Description: as §1, §2

TDP-222 peptide = target: T22, TDP-222 peptide; experiment: indirect ELISA, 8-mer peptide library
Description: as §1, §2

TDP-223 peptide = target: T23, TDP-223 peptide; experiment: indirect ELISA, 8-mer peptide library
Description: as §1, §2

TDP-224 peptide = target: T24, TDP-224 peptide; experiment: indirect ELISA, 8-mer peptide library
Description: as §1, §2

TDP-215 peptide = target: T25, TDP-215 peptide; experiment: indirect ELISA, 8-mer peptide library, OD 405 nm
Description: as §1, §2

| binding result (TDP-3 peptide) | EC50 (TDP-1 peptide) | binding result (BSA) | OD (TP-24 peptide) | OD (TP-25 peptide) | binding result (TP-26) | binding result (TP-27) | binding result (TP-28) | binding result (TP-29) | binding result (TP-30) | binding result (TP-31) | Binder | other results |
| --- | --- | --- | --- | --- | --- | --- | --- | --- | --- | --- | --- | --- |
| no binding | < 0.01 nM | no binding | 3.9 O.D. (405 nm) | 1.2 O.D. (405 nm) | no binding | no binding | no binding | no binding | no binding | no binding | ACI-7062-415H10-Ab2 (antibody, IgG3, V domains shown, also called 415H10B7; clone 17) VH: DVQLVESGGGLVQPGGSRKLSCAASGFTFSSFGMHWVRQAPEKGLEWVAYISSGSSNIYYTDTVKGRFTISRDNPKNTLFLQMTSLRSEDTAIYYCARSGTTVPFDYWGQGTTLTVSS VL: not shown | EC50 [1]: 0.16 nM; Kd [2]: 1.1 nM |
| no binding | < 0.01 nM | no binding | 3.9 O.D. (405 nm) | 1.2 O.D. (405 nm) | no binding | no binding | no binding | no binding | no binding | no binding | ACI-7062-414A5-Ab1 (antibody, IgG2a, V domains shown, also called 414A5D2; clone 12) VH: DVQLVESGGGLVQPGGSRRLSCAASGFTFSSFGMHWVRQAPEKGLEWVAYIRSGSDIIYYADTVKGRFTISRDNPENTLFLEMTRLRSEDTAMYYCARSGTTVPFDYWGQGTSLTVSS VL: not shown | binding result (TDP-210 peptide): no binding; binding result (TDP-211 peptide): no binding; binding result (TDP-212 peptide): no binding; binding result (TDP-213 peptide): no binding; binding result (TDP-214 peptide): no binding; binding result (TDP-216 peptide): no binding; binding result (TDP-217 peptide): no binding; binding result (TDP-218 peptide): no binding; binding result (TDP-219 peptide): no binding; binding result (TDP-220 peptide): no binding; binding result (TDP-221 peptide): no binding; binding result (TDP-222 peptide): no binding; binding result (TDP-223 peptide): no binding; binding result (TDP-224 peptide): no binding; binding result (TDP-215 peptide): binds |
